According to patent publication US20090276160A1 (published 2009):

Tests used:
Assay in all cases: cell-based or functional assay
[1] = target: T1, Hepatocyte growth factor activator (HGFA), activated 34 kDa short form, residues Val373 to Ser655 with a … (human, UniProt Q04756 408-655, single N-acetylglucosamine attached to Asn74 (chymotrypsinogen numbering))
T1 sequence 1: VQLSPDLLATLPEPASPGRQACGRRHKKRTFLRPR
T1 sequence 2: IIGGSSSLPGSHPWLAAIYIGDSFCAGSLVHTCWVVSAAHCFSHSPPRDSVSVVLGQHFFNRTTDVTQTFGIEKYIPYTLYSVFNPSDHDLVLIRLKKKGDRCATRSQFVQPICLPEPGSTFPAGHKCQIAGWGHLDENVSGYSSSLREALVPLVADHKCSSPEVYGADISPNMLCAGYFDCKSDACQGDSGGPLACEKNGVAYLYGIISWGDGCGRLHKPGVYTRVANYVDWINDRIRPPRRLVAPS

[2] = target: Factor Xa (Haematologic Technologies) (human, UniProt P00742 41-179; P00742 235-488, limits assumed)
Factor Xa (Haematologic Technologies), sequence (P00742 41-179 limits assumed, chain 1 of 2): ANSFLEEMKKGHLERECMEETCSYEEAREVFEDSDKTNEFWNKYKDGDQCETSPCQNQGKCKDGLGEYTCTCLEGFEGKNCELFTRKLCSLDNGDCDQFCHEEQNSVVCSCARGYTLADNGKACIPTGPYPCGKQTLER
Factor Xa (Haematologic Technologies), sequence (P00742 235-488 limits assumed, chain 2 of 2): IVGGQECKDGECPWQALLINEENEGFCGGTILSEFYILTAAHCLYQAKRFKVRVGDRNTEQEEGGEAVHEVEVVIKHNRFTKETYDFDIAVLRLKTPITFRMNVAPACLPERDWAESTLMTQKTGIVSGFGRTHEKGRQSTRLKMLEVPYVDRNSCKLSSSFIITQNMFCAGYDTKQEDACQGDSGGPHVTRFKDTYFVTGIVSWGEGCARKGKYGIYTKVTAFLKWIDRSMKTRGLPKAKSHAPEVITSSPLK

[3] = target: T2, Factor XIIa (American Diagnostica) (human, UniProt P00748 20-615, limits assumed)
T2 sequence (looked up): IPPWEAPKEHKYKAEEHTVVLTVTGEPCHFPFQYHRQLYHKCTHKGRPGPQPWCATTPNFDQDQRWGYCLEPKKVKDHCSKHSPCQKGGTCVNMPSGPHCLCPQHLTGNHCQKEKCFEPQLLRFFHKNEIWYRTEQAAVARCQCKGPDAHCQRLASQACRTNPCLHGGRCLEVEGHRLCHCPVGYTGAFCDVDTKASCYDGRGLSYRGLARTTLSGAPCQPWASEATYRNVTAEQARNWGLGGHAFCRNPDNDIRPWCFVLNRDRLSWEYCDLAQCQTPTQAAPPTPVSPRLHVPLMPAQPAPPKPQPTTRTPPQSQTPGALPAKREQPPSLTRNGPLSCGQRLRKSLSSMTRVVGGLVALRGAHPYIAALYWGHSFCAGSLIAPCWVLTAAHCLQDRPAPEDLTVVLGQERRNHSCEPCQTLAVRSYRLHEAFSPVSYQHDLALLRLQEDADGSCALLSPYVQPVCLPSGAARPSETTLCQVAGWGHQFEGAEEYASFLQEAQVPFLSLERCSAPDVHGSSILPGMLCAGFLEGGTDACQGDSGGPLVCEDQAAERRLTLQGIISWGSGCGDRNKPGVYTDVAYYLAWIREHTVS

[4] = target: Plasmin (Haematologic Technologies) (human, UniProt P00747 97-810, limits assumed)
Plasmin (Haematologic Technologies), sequence (P00747 97-810 limits assumed): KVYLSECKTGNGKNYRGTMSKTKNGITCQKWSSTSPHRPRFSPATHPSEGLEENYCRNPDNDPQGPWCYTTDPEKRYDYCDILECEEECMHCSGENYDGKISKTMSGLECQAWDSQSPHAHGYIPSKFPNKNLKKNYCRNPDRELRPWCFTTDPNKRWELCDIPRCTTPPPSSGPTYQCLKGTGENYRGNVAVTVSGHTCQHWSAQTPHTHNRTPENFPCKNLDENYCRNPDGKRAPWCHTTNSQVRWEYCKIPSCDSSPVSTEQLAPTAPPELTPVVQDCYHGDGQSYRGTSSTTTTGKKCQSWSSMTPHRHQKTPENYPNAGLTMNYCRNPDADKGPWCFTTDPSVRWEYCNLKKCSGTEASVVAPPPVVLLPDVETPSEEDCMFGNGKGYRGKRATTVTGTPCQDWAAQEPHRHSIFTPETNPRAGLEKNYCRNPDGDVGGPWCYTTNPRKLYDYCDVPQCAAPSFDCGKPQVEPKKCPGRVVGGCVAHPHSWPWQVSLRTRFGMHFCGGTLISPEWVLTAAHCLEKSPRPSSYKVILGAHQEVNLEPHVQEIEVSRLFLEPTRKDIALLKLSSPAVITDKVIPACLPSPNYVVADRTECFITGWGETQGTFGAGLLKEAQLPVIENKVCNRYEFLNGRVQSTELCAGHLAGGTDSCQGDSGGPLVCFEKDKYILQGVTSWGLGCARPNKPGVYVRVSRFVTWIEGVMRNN

Hepsin (residues 45-417) = Hepsin (residues 45-417) (human, UniProt P05981 45-417)
Hepsin (residues 45-417), sequence (P05981 45-417 limits assumed): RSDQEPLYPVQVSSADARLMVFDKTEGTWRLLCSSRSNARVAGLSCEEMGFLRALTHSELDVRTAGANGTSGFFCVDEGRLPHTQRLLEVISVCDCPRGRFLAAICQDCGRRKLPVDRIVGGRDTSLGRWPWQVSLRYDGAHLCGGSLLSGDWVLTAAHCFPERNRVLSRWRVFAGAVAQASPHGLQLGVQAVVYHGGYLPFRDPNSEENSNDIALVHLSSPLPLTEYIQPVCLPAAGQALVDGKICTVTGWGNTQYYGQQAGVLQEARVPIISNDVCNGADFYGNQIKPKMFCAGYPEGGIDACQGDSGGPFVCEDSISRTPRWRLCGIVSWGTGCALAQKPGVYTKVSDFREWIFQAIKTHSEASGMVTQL

[5] = target: T3, Complement factor C1s (Calbiochem) (human, UniProt P09871 16-688)
T3 sequence (looked up): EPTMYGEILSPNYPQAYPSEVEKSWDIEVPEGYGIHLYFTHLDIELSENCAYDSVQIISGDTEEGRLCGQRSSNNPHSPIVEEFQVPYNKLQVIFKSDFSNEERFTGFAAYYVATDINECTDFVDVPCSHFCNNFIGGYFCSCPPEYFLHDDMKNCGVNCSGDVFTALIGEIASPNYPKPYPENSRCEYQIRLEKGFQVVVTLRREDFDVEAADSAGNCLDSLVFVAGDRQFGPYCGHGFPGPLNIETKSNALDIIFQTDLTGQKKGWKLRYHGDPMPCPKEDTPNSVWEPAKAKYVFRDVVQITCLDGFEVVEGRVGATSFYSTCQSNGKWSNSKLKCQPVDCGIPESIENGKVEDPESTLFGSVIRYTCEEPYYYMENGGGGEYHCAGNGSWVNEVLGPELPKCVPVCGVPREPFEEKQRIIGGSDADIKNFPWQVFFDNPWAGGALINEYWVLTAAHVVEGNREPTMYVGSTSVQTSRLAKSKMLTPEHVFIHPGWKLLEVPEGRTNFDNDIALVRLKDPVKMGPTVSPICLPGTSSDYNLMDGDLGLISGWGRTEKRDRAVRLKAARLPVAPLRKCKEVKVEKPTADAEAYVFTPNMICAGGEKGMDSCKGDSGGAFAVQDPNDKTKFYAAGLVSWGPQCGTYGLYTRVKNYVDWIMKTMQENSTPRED

[6] = target: Bovine trypsin (Worthington) (bovine, UniProt P00760 24-246)
Bovine trypsin (Worthington), sequence (P00760 24-246): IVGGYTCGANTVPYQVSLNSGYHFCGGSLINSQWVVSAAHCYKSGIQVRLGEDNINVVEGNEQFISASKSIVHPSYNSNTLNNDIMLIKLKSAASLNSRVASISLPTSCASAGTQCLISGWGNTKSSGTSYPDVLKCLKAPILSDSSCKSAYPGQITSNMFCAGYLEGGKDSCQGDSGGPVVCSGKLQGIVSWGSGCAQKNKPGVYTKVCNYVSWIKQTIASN

[7] = target: Activated Protein C (Haematologic Technologies) (human, UniProt P04070 43-197; P04070 212-461)
Activated Protein C (Haematologic Technologies), sequence (P04070 43-197, form in doubt, chain 1 of 2): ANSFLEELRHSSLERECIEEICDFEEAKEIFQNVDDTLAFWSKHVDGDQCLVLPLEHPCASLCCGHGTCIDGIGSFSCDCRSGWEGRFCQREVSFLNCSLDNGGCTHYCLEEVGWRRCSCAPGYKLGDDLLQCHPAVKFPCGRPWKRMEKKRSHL
Activated Protein C (Haematologic Technologies), sequence (P04070 212-461, form in doubt, chain 2 of 2): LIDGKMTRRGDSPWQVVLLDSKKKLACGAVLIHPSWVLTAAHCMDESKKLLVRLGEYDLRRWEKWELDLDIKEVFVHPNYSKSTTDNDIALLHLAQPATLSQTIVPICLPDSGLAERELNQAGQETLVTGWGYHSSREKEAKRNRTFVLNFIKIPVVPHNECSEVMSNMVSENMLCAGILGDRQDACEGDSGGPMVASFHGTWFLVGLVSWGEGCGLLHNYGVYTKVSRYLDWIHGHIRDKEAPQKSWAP

[8] = target: Plasma kallikrein (American Diagnostica) (human, UniProt P03952 20-638)
Plasma kallikrein (American Diagnostica), sequence (P03952 20-638 limits assumed): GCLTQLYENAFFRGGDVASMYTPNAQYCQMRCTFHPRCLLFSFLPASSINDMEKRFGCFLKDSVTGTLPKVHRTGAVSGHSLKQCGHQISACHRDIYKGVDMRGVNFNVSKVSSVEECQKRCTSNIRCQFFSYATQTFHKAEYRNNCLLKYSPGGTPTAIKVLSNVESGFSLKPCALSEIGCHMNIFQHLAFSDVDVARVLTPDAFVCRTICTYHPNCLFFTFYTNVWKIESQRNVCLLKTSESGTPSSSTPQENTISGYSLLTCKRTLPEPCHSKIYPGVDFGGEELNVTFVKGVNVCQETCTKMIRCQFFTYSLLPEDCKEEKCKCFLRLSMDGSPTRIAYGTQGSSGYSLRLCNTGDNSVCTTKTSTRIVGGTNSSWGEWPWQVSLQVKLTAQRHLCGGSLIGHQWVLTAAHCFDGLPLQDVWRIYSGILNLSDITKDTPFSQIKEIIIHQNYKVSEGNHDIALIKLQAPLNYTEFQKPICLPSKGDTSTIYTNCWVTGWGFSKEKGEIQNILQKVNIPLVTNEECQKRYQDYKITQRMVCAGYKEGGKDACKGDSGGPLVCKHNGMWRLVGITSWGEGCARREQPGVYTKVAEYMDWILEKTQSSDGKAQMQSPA

Chymotrypsin (Sigma) = Chymotrypsin (Sigma) (human, UniProt P17538 19-263)
Chymotrypsin (Sigma), sequence (P17538 19-263): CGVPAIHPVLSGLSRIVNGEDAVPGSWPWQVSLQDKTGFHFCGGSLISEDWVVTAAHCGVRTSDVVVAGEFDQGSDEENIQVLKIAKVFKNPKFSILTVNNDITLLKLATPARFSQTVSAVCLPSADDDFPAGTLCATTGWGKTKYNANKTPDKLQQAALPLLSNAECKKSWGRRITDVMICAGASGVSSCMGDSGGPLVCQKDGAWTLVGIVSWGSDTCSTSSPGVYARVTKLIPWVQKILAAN

[9] = target: T4, Matriptase (residues 615-855) (human, UniProt Q9Y5Y6 615-855)
T4 sequence (looked up): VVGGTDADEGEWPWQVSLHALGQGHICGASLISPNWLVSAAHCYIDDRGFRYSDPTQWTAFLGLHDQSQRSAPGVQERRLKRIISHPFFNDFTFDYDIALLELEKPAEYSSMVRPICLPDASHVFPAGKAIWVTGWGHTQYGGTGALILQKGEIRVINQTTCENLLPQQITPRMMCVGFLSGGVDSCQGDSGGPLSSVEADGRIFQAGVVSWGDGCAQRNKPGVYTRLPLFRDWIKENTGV

[10] = target: tPA (Activase, Genentech) (human, UniProt P00750 36-562)
tPA (Activase, Genentech), sequence (P00750 36-562 limits assumed): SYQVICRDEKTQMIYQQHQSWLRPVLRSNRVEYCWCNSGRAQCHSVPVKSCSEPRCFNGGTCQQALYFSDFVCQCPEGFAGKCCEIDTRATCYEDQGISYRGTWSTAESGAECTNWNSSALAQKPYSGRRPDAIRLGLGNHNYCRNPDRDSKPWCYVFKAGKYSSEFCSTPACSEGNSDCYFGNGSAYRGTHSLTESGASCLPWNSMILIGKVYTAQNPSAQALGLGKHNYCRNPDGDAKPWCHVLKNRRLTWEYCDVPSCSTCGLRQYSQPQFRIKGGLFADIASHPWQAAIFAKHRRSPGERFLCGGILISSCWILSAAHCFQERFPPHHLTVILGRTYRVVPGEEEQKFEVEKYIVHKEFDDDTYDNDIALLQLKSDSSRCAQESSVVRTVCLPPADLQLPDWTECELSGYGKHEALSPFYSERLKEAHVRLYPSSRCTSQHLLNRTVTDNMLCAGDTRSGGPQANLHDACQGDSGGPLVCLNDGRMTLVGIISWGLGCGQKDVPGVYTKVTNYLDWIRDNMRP

[11] = target: Tissue factor/factor VIIa complex: human tissue factor (residues 1-219) with human recombinant FVIIa (human, UniProt P13726 33-251; P08709 61-466)
Tissue factor/factor VIIa complex: human tissue factor (residues 1-219) with human recombinant FVIIa, sequence (P13726 33-251 limits assumed, chain 1 of 2): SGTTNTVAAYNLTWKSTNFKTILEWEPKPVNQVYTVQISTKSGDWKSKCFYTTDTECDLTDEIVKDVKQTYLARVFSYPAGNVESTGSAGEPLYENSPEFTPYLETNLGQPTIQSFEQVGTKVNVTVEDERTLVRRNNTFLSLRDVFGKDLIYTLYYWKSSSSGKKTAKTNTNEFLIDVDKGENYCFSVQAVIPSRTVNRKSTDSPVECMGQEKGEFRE
Tissue factor/factor VIIa complex: human tissue factor (residues 1-219) with human recombinant FVIIa, sequence (P08709 61-466 limits assumed, chain 2 of 2): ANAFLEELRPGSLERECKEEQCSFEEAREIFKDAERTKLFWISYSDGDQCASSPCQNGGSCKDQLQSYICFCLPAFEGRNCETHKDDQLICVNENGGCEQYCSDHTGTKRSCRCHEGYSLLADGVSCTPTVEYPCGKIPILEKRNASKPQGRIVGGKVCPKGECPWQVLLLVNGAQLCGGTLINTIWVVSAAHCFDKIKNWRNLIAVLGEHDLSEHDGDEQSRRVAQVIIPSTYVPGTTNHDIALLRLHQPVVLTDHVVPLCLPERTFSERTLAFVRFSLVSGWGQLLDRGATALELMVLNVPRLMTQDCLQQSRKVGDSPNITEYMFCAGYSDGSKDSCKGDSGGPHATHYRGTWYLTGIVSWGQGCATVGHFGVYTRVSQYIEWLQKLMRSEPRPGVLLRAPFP

[12] = target: Factor XIa (Haematologic Technologies) (human, UniProt P03951 19-625)
uPA (Chemicon) = uPA (Chemicon) (human, UniProt P00749 21-431, limits assumed)
[13] = target: Thrombin (Haematologic Technologies) (human, UniProt P00734 328-622)

IC50 (nM), inhibition of enzyme activity on chromogenic substrate [1]: 4 nM
IC50 (nM), inhibition of enzyme activity on chromogenic substrate [2]: > 1000 nM
IC50 (nM), inhibition of enzyme activity on chromogenic substrate [3]: > 1000 nM
IC50 (nM), inhibition of enzyme activity on chromogenic substrate [4]: 115 nM
IC50 (nM), inhibition of enzyme activity on chromogenic substrate (Hepsin (residues 45-417)): 6.7 nM
IC50 (nM), inhibition of enzyme activity on chromogenic substrate [5]: > 1000 nM
IC50 (nM), inhibition of enzyme activity on chromogenic substrate [6]: 0.7 nM
IC50 (nM), inhibition of enzyme activity on chromogenic substrate [7]: > 1000 nM
IC50 (nM), inhibition of enzyme activity on chromogenic substrate [8]: 21 nM
IC50 (nM), inhibition of enzyme activity on chromogenic substrate (Chymotrypsin (Sigma)): > 1000 nM
IC50 (nM), inhibition of enzyme activity on chromogenic substrate [9]: 1.7 nM
IC50 (nM), inhibition of enzyme activity on chromogenic substrate [10]: > 1000 nM
IC50 (nM), inhibition of enzyme activity on chromogenic substrate [11]: > 1000 nM
IC50 (nM), inhibition of enzyme activity on chromogenic substrate [12]: > 1000 nM
IC50 (nM), inhibition of enzyme activity on chromogenic substrate (uPA (Chemicon)): > 1000 nM
IC50 (nM), inhibition of enzyme activity on chromogenic substrate [13]: > 1000 nM
B1: First Kunitz domain (KD1) of human HAI-1B, amino acids 246-303 of the precursor, with N-terminal polyhistidine leader (other)
chain: MKHQHQHQHQHQHQMHQTEDYCLASNKVGRCRGSFPRWYYDPTEQICKSFVYGGCLGNKNNYLREEECILACRGV
